Assay results: patent US20220195067A1 (LAMKAP BIO BETA, published 2022)
Numbering of substitutions follows the chain as printed. Each block holds one binder with its values, some of them ahead of it.

Experiments:
[1] = target: T1, his-tagged recombinant huCEACAM3 (R&D Systems, #9868-CM) (human, UniProt P40198 35-155); experiment: BLI (Octet), his-tagged CEACAM3 on HIS1K biosensor, antibody as analyte
T1 construct: Bought reagent; also called rec. hCEACAM3; recombinant soluble human CEACAM3; not shown: His tag
T1 sequence (looked up): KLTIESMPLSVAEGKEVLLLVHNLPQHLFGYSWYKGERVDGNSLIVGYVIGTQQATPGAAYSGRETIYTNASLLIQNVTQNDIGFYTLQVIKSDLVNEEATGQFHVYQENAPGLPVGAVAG
Experimental: (§1) The affinity of the anti-human CEACAM5 arms of the CD47×CEACAM5 bispecific antibodies of the invention for recombinant soluble human CEACAM3 was determined using the Bio-Layer Interferometry (BLI) technology and an OctetRED96 instrument. HIS1K biosensors (Sartorius), loaded with an anti-His tag antibody, were used to capture his-tagged recombinant huCEACAM3 (R&D Systems, #9868-CM). The measurement was performed at 30° C. After hydration, pre-conditioning and a baseline step in Kinetic buffer (PBS, 0.002% Tween 20, 0.01% BSA, Kathon; Sartorius), biosensors were loaded for 5 min with the recombinant huCEACAM3 at 5 μg/mL in Kinetic buffer. Then, biosensors were dipped into a serial dilution of k bodies, starting at 667 nM with a 2× dilution factor. The association and dissociation phases were monitored for 60 seconds and 120 seconds respectively. Biosensors were regenerated using 10 mM glycine pH 1.7. A standard acquisition rate was applied (5.0 Hz, averaging by 20). Curves were processed with a double reference subtraction, a Y alignment on the baseline and an interstep correction. The affinity was measured applying a 1:1 global fitting model on the full association step and the first 5 seconds of the dissociation step.

[2] = target: T2, recombinant human CEACAM5 Extra Cellular Domain (ECD) soluble protein (human, UniProt P06731 35-685, biotinylated in the competition ELISA of Example 4); experiment: BLI (Octet), from Table 2
T2 construct: extracellular domain; also called rec. hCEACAM5; recombinant soluble human CEACAM5; not shown: C-terminal Avitag and hexa-histidine tag, or a human Fc or a mouse Fc region; which construct stood in each assay is not
T2 sequence (looked up): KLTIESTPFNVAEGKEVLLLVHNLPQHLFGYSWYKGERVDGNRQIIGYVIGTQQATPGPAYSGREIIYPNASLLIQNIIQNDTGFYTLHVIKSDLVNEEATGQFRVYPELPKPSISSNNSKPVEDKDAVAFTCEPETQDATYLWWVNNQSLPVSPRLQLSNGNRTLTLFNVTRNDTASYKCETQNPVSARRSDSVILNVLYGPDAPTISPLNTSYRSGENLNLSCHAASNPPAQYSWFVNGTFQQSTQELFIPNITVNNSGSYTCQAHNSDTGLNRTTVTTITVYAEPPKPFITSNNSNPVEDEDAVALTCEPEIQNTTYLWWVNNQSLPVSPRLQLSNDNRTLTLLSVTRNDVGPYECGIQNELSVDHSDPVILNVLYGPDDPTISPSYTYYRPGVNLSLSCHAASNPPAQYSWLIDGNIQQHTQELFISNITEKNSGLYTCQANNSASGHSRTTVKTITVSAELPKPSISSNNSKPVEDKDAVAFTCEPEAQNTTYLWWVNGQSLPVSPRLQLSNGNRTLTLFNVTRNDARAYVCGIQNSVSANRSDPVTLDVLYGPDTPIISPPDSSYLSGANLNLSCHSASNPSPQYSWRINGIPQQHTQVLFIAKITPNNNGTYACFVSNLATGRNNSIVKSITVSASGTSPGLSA
Experimental: (§2) The affinity of the anti-human CEACAM5 arm of the CD47×CEACAM5 bispecific antibodies of the invention for recombinant soluble human CEACAM5 was determined using the Bio-Layer Interferometry (BLI) technology. An OctetRED96 instrument and Protein A biosensors were used (Sartorius). The measurement was performed at 30° C. After hydration, pre-conditioning and a baseline step in Kinetic buffer (PBS, 0.002% Tween 20, 0.01% BSA, Kathon; Sartorius), biosensors were loaded for 5 min with the κλ body at 0.5 μg/mL in Kinetic buffer. Then, biosensors were dipped into a serial dilution of recombinant human CEACAM5 Extra Cellular Domain (ECD) soluble protein (produced in house), starting at 50 nM with a 2× dilution factor. The association and dissociation phases were monitored for 600 seconds each. Biosensors were regenerated using 10 mM glycine pH 1.7. A standard acquisition rate was applied (5.0 Hz, averaging by 20). Curves were processed with a reference well subtraction, a Y alignment on the baseline, without interstep correction. The affinity was measured applying a 1:1 global fitting model on the full association and dissociation steps. The binding affinity (KD) of the bispecific antibodies of the invention to recombinant human CD47 was determined by the same experimental procedure.
as §1, with “1.7.” for “1.7. A standard acquisition rate was applied (5.0 Hz, averaging by 20). Curves were processed with a double reference subtraction, a Y alignment on the baseline and an interstep correction. The affinity was measured applying a 1:1 global fitting model on the full association step and the first 5 seconds of the dissociation step.”

[3] = target: T1, his-tagged recombinant huCEACAM3 (R&D …); experiment: BLI (Octet), from Table 2
Experimental: as §2
as §1, with “1.7.” for “1.7. A standard acquisition rate was applied (5.0 Hz, averaging by 20). Curves were processed with a double reference subtraction, a Y alignment on the baseline and an interstep correction. The affinity was measured applying a 1:1 global fitting model on the full association step and the first 5 seconds of the dissociation step.”

Kd [1]: 360 nM
fold higher binding affinity (KD) compared to K2AC22 [2]: 46 fold
fold higher binding affinity (KD) compared to K2AC22 [3]: 28 fold
B1: K2AC84 (bispecific antibody, human IgG1, kappa, lambda)
heavy: not shown
light 1: QSVLTQPPSVSAAPGQKVTISCSGSSSNIGIGLVSWYQQLPGTAPKLLIYNVNTRPSGIPDRFSGSKSGTSATLGITGLQTGDEADYYCGTWDFSYRVDFGGGTKLTVLGQPKAAPSVTLFPPSSEELQANKATLVCLISDFYPGAVTVAWKADSSPVKAGVETTTPSKQSNNKYAASSYLSLTPEQWKSHRSYSCQVTHEGSTVEKTVAPTECS
light 2: not shown
notes: Kappa-lambda body; also called CD47xCEACAM5 bispecific antibody K2AC84; AC84 (CEACAM5 arm)

Kd [1]: 10000 nM
B2: K2AC22 (bispecific antibody, human IgG1, kappa, lambda)
heavy: not shown
light 1: B1 light 1 with G30A, I31N, L33I, N51F, V52D, T54L, R97G, V98I, D99V
light 2: not shown
notes: Kappa-lambda body, human IgG1, one arm for CEACAM5 and one for CD47; comparison antibody from WO2019234576; also called state of the art bispecific CEAxCD47 antibody K2AC22; CD47xCEACAM5 bispecific antibody K2AC22

Kd [1]: 700 nM
fold higher binding affinity (lower KD) compared to K2AC22 [2]: 25 fold
fold higher binding affinity (lower KD) compared to K2AC22 [3]: 14 fold
B3: K2AC100 (bispecific antibody, human IgG1, kappa, lambda)
heavy: not shown
light 1: B1 light 1 with I31Y, V52G, T54I
light 2: not shown
notes: Kappa-lambda body; also called CD47xCEACAM5 bispecific antibody K2AC100; AC100 (CEACAM5 arm)
